{"source": "patent US20150182631A1", "about": "“SYSTEM FOR […]-BASED ACTIVE INGREDIENTS” (Centre National De La Recherche Scientifique-CNRS, priority 2012, published 2015)", "type_in_all_cases": "physicochemical", "key": {"[1]": {"test": "SDS-PAGE of tetramer and disulphide bridge stability", "conditions": "2% of SDS, not heated before deposit", "protocol": "The clone A38C was obtained by directed mutagenesis by using the XCL plasmid as a matrix and the protein produced and purified by using the same protocol as that used to produce XCL (Trigueros et al. (2003)). A yield of 25 mg of purified protein per litre of culture was obtained. The last part of the protocol consisted in a step of oxidation for 12 hours in the presence of 10 mM of oxidised glutathione. This step is required in order to produce disulphide bridges between the monomers. The forming of these covalent bonds was verified by SDS-PAGE. Two SDS-PAGE were prepared. Beta-mercaptoethanol was added to the samples in the first gel while beta-mercaptoethanol was not added to the second gel. When XCL is heated to 95° C. 5 min before the deposit, a single band is observed with a molecular weight slightly greater than 20 kDa on the two gels. This band corresponds to the species in monomer form.\nA variant T12C was produced in the same manner as A38C by directed mutagenesis by using the XCL plasmid as a matrix. By using the same protocol, 10 mg of protein per litre of culture were produced. The oxidation rate of the variant T12C was sought by using the same method by SDS-PAGE as for A38C. These rates were compared with those obtained with the variant A38C. Several oxidative conditions were tested with different concentrations of reduced glutathione. […]"}, "[2]": {"test": "FRET on dilution, tetramer equilibrium", "protocol": "The mixture of FITC-XCL and RITC-XCL was diluted to various concentrations and incubated for 1 hour at ambient temperature. The fluorescence spectrum was recorded with a light excitation at 468 nm. In order to substantially determine the decrease in the energy transfer and normalise the intensity of the fluorescence, a ratio I580/I520 was calculated for each concentration and taken according to the concentration in XCL (FIG. 4). […] Evidently, the titration curve is not complete as long as the saturation is not reached for the points with the strongest concentration. Due to the solubility limit of XCL and of the labelling protocol, the concentrations in protein cannot exceed 10 μM in this experiment."}, "[3]": {"test": "Thermal dissociation by NMR DOSY", "protocol": "The thermal dissociation was also followed by DOSY experiments (Diffusion Ordered SpectrometrY). The ratio of the hydrodynamic radius of XCL and of the dioxane were measured according to the temperature (FIG. 9).\nIf the tetramer is dissociated by increasing the temperature, a decrease in this ratio is expected and therefore of the hydrodynamic radius of XCL. […] After 50° C., the protein sample precipitates out as already described in the fluorescence experiments with tryptophan."}, "[4]": {"test": "Size exclusion chromatography at variable concentration, tetramer equilibrium", "protocol": "(§1) The size exclusion chromatography experiments were carried out on a GE-Healthcare Superose 12 PC 3.2/30 column. The columns are pre-balanced in the buffer tested, namely phosphate buffer 50 mM, 100 mM NaCl, pH7.2 or pH 4.4 in the absence or in the presence of 0.003% of SDS. The flow rate is 0.5 mL/min. The BSA and the RNase A are used as a size marker.\nIn order to confirm the data obtained in FRET, the displacement of the balance was evaluated by gel exclusion chromatography. Bovine Serum Albumin (BSA) and ribonuclease A were used to calibrate the column. Elution volumes of 12.6 ml and of 15.5 ml were obtained respectively. At a strong concentration (here 30 μM), XCL has an elution volume of 13.2 ml close to the elution volume of BSA as expected for tetrameric species. […] However, it was shown by digital simulation that according to the association rate, the rate of dissociation, the flow rate and separation characteristics of the column, two populations of molecules that are exchanging could lead to a single peak via size exclusion chromatography (Yu et al., (2006)). The inventors carried out several injections by using variable concentrations of XCL and observed that indeed a single peak was obtained. However this peak is displaced to longer elution volumes as the concentration decreases, indicating a smaller molecular weight."}, "[5]": {"test": "Thermal dissociation by tryptophan fluorescence", "source_text": "The thermal dissociation of XCL was followed by measuring the intrinsic fluorescence of the tryptophans. Each monomer of XCL contains 3 tryptophan residues: one in a hydrophobic cavity (Trp 77) and two located on the same interface between two monomers (Trp 27 and Trp 35). The inventors used these latter two Trp as probes for the quaternary structure of XCL, by taking advantage of their position in the structure of the tetramer. In order to increase the sensitivity of the measurement, the ratio of the fluorescence intensities 346 nm/330 nm was measured according to the temperature (FIG. 8)."}, "[6]": {"test": "Chemical dissociation by size exclusion chromatography at acidic pH", "protocol": "as §1\nThe inventors studied the behaviour of XCL in denaturing chemical conditions close to those encountered in the lysosomes. The analysis was carried out via exclusion chromatography with an acidic pH (pH 4.4). It appears that the elution peak of XCL in these denaturing conditions is displaced to greater elution volumes showing the appearance of a smaller size. When 0.003% SDS is added, the elution peak is displaced to the elution volume of the RNAse A which has a molecular weight close to the XCL monomer.\nThe behaviour of the oxidised mutant A38C was also analysed. […] The addition of the disulphide bridge therefore increases the stability of the protein assembly."}}}
{"molecule": "XCL: Xerocomus chrysenteron lectin, fungal sporocarp lectin forming a tetramer with central cavity, SEQ ID NO: 1 (protein, Xerocomus chrysenteron) MSYSITLRVYQTNRDRGYFSIVEKTVWHFANGGTWSEANGAHTLTQGGSGTSGVLRFLSTKGERITVAVGVHNYKRWCDVVTGLKPDETALVINPQYYNNGGRDYVREKQLAEYSVTSAIGTKVEVVYTVAEGNNLEANVIFS", "values": [{"measurement": "oligomeric form on SDS-PAGE", "setting": "[1]", "value": "remained in tetrameric form"}, {"measurement": "concentration of the transition in energy transfer intensity (I580/I520)", "setting": "[2]; 1 hour at ambient temperature", "value": "close to the micromolar"}, {"measurement": "maximum protein concentration (solubility limit and labelling protocol)", "setting": "[2]; labelled XCL in FRET experiment", "value": "≤ 10", "unit": "µM"}, {"measurement": "temperature after which the protein sample precipitates out", "setting": "[3]; DOSY", "value": "> 50", "unit": "°C"}, {"measurement": "hydrodynamic radius versus temperature", "setting": "[3]; ratio of hydrodynamic radius of XCL and dioxane", "value": "no transition in the hydrodynamic radius is observed"}, {"measurement": "concentration of the transition in elution volume", "setting": "[4]", "value": "close to the micromolar"}, {"measurement": "temperature before which no modification of the 346 nm/330 nm Trp fluorescence ratio was observed (lectin remained tetrameric)", "setting": "[5]", "value": "< 50", "unit": "°C"}, {"measurement": "temperature beyond which the protein precipitates out (visual analysis after heating)", "setting": "[5]; precipitates in tetrameric form", "value": "> 45", "unit": "°C"}, {"measurement": "oligomeric state by elution volume at pH 4.4 with SDS", "setting": "[6]; pH 4.4, 0.003% SDS", "value": "these dimers are dissociated into monomers"}, {"measurement": "oligomeric state by elution volume at pH 4.4", "setting": "[6]; pH 4.4, no SDS", "value": "dissociation of the tetramer into a dimer"}]}
